# Assay results published in the RNAGym collection of RNA variant scans (doi:10.7554/elife.80360).
# B1: HDV Ribozyme (parent)
# chain: GGCCGGCAUGGUCCCAGCCUCCUCGCUGGCGCCGGCUGGGCAACAUUCCGAGGGGACCGUCCCCUCGGUAAUGGCGAAUGGGACCCA
# Variants of: B1
# Experiment: self-cleavage, relative activity (ratio to wild type); higher = more cleavage; co-transcriptional
row,Variant,self-cleavage
1,UGCCGGCAUGGUCCCAGCCACCUCGCUGGCGCCGGCUGGGCAACAUUCCGAGGGGACCGUCCCCUCGGUAAUGGCGAAUGGGACCCA [G1U U20A],0.289
2,UGCCGGCAUGGUCCCAGCCGCCUCGCUGGCGCCGGCUGGGCAACAUUCCGAGGGGACCGUCCCCUCGGUAAUGGCGAAUGGGACCCA [G1U U20G],0.285
3,UGCCGGCAGGGUCCCAGCCUCCUCGCUGGCGCCGGCUGGGCAACAUUCCGAGGGGACCGUCCCCUCGGUAAUGGCGAAUGGGACCCA [G1U U9G],0.399
4,UGCCGGCAAGGUCCCAGCCUCCUCGCUGGCGCCGGCUGGGCAACAUUCCGAGGGGACCGUCCCCUCGGUAAUGGCGAAUGGGACCCA [G1U U9A],0.389
5,UGCCGGCACGGUCCCAGCCUCCUCGCUGGCGCCGGCUGGGCAACAUUCCGAGGGGACCGUCCCCUCGGUAAUGGCGAAUGGGACCCA [G1U U9C],0.554
6,UGCCGGCAUGGUCCCAGCCUCCUCGCUGCCGCCGGCUGGGCAACAUUCCGAGGGGACCGUCCCCUCGGUAAUGGCGAAUGGGACCCA [G1U G29C],0.292
7,UGCCGGCAUGGUCCCAGCCUCCUCGCUGUCGCCGGCUGGGCAACAUUCCGAGGGGACCGUCCCCUCGGUAAUGGCGAAUGGGACCCA [G1U G29U],0.308
8,UGCCGGCAUGGUCCCAGCCUCCUCGCUGGCGCCGGCUGGGCAACAUUCCGAGGGGACCGUCCCCUCGGUAAUGGCGAAUGCGACCCA [G1U G81C],0.326
9,UGCCGGCAUGGUCCCAGCCUCCUCGCUGGCGCCGGCUGGGCAACAUUCCGAGGGGACCGUCCCCUCGGUAAUGGCGAAUGUGACCCA [G1U G81U],0.41
10,GACCGGCAUGGUCCCAGCCUCCUCGCUGGCGCCGGCUGGGCUACAUUCCGAGGGGACCGUCCCCUCGGUAAUGGCGAAUGGGACCCA [G2A A42U],0.0804
11,GACCGGCAUGGUCCCAGCCUCCUCGCUGGCGCCGGCUGGGCCACAUUCCGAGGGGACCGUCCCCUCGGUAAUGGCGAAUGGGACCCA [G2A A42C],0.0432
12,GACCGGCAUGGUCCCAGCCUCCUCGCUGGCGCCGGCUGGGCGACAUUCCGAGGGGACCGUCCCCUCGGUAAUGGCGAAUGGGACCCA [G2A A42G],0.0302
13,UGCCGGCAUGGUCCCAGCCUCCUCGCUGGCGCCGGCUGGGCAACAUUCCGAGGGGACCGUCCCCUCGGUAAUGGCCAAUGGGACCCA [G1U G76C],0.277
14,UGCCGGCAUGGUCCCAGCCUCCUCGCUGGCGCCGGCUGGGCAACAUUCCGAGGGGACCGUCCCCUCGGUAAUGGCUAAUGGGACCCA [G1U G76U],0.359
15,UGCCGGCAUGGUCCCAGCCUCCUCGCUGGCGCCGGCUGGGCAACAUUCCGAGGGAACCGUCCCCUCGGUAAUGGCGAAUGGGACCCA [G1U G55A],0.208
16,UGCCGGCAUGGUCCCAGCCUCCUCGCUGGCGCCGGCUGGGCAACAUUCCGAGGGUACCGUCCCCUCGGUAAUGGCGAAUGGGACCCA [G1U G55U],0.455

row,Variant,self-cleavage
1,GACCGGCAUGGUCCCAGCCUCCUCGCUGGCGCCGGCUGGGCAACCUUCCGAGGGGACCGUCCCCUCGGUAAUGGCGAAUGGGACCCA [G2A A45C],0.0723
2,UGCCGGCAUGGUCCCAGCCUCCUCGCUGGCGCCGGCUCGGCAACAUUCCGAGGGGACCGUCCCCUCGGUAAUGGCGAAUGGGACCCA [G1U G38C],0.369
3,UGCCGGCAUGGUCCCAGCCUCCUCGCUGGCGCCGGCUAGGCAACAUUCCGAGGGGACCGUCCCCUCGGUAAUGGCGAAUGGGACCCA [G1U G38A],0.422
4,UGCCGGCAUGGUCCCAGCCUCCUCGCUGGCGCCGGCUGGGCAACAUUCCGAGGGGACCGUCCCCUCGGAAAUGGCGAAUGGGACCCA [G1U U69A],0.332
5,UGCCGGCAUGGUCCCAGCCUCCUCGCUGGCGCCGGCUGGGCAACAUUCCGAGGGGACCGUCCCCUCGGCAAUGGCGAAUGGGACCCA [G1U U69C],0.259
6,UGCCGGCAUGGUCCCAGCCUCCUCGCUGGCGCCGGCUGGGCAACAUUCCGAGCGGACCGUCCCCUCGGUAAUGGCGAAUGGGACCCA [G1U G53C],0.283
7,UGCCGGCAUGGUCCCAGCCUCCUCGCUGGCGCCGGCUGGGCAACAUUCCGAGUGGACCGUCCCCUCGGUAAUGGCGAAUGGGACCCA [G1U G53U],0.355
8,UGCCGGCAUGGUCCCAGCCUCCUCGCUGGCGCCGGCUGGGCAACAUUCCGAGAGGACCGUCCCCUCGGUAAUGGCGAAUGGGACCCA [G1U G53A],0.32
9,UGCCGGCAUGGUCCCAGCCUCCUCGCUGGCCCCGGCUGGGCAACAUUCCGAGGGGACCGUCCCCUCGGUAAUGGCGAAUGGGACCCA [G1U G31C],0.356
10,UGCCGGCAUGGUCCCAGCCUCCUCGCUGGCUCCGGCUGGGCAACAUUCCGAGGGGACCGUCCCCUCGGUAAUGGCGAAUGGGACCCA [G1U G31U],0.385
11,UGCCGGCAUGGUCCCAGCCUCCUCGCUGGCGCCGGCUGGGCAACAUUCCGAGGGGACCGUCCCCUCAGUAAUGGCGAAUGGGACCCA [G1U G67A],0.506
12,UGCCGGCAUGGUCCCAGCCUCCUCGCUGGCGCCGGCUGGGCAACAUUCCGAGGGGACCGACCCCUCGGUAAUGGCGAAUGGGACCCA [G1U U60A],0.343
13,UGCCGGCAUGGUCCCAGCCUCCUCGCUGGCGCCGGCUGGGCAACAUUCCGAGGGGACCCUCCCCUCGGUAAUGGCGAAUGGGACCCA [G1U G59C],0.277
14,UGCCGGCAUGGUCCCAGCCUCCUCGCUGGCGCCGGCUGGGCAACAUUCCGAGGGGACCUUCCCCUCGGUAAUGGCGAAUGGGACCCA [G1U G59U],0.451
15,UGCCGGCAUGGUCCCAGCCUCCUCGCUGGCGCCGGCUGGGCAACAUUCCGAGGGGACCAUCCCCUCGGUAAUGGCGAAUGGGACCCA [G1U G59A],0.442
16,UGCCGGCAUGGUCCCAGCCUCCUCGCUGGCGCCGGCUGGGCAACAUUCCGAGGGGACCGUCCCCUCGGUAAUGGCGAAUUGGACCCA [G1U G80U],0.479
